Drawing on article PMC10148881, “Recognition of an Ala-rich C-degron by the E3 ligase Pirh2” (Nature Communications, 2023), this text covers Kd for two molecules.

What all share (test): ITC; peptides (0.6–1.0 mM) titrated into the cell with 180–220 μM protein at 16 °C; 20 mM Tris-HCl pH 7.5, 150 mM NaCl, 10 μM Zn2+; one-site binding model
Holding throughout (settings): both partners purified
Background: ITC needs no label: the signal is the heat of the interaction.

The target of assay [1] is T1, Pirh2 NTD + RING (residues 1–189) (human, UniProt Q96PM5 1-189).
T1 construct: human Pirh2 (Rchy1), NTD + RING, residues 1–189; source: E. coli BL21 (DE3), purified (Ni-NTA, TEV cleavage, SEC); not shown: 8xHis-SUMO, N-terminal, cleaved
T1 sequence (looked up): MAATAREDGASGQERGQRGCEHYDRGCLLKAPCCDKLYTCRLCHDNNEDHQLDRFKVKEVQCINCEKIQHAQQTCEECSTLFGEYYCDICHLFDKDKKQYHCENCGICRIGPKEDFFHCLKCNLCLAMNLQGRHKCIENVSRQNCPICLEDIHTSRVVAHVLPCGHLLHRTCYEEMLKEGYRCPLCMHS

For assay [2], the target named is T2, Pirh2 NTD (residues 1–137) (human, UniProt Q96PM5 1-137).
T2 construct: human Pirh2 (Rchy1), NTD, residues 1–137; also called CHY zinc finger; source: E. coli BL21 (DE3), purified (Ni-NTA, TEV cleavage, SEC); not shown: 8xHis-SUMO, N-terminal, cleaved
T2 sequence (looked up): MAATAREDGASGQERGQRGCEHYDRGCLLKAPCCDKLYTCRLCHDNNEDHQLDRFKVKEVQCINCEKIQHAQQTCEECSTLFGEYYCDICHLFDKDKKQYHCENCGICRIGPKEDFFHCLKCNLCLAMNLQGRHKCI

In assay [3] the target is T3, full-length Pirh2 (residues 1–261) (human, UniProt Q96PM5 1-261).
T3 construct: human Pirh2 (Rchy1, RING finger and CHY zinc finger domain-containing protein 1), residues 1–261; Cloned into pET28-MKH8SUMO; the tag was cut off with TEV protease; also called Rchy1; p53-induced RING-H2 protein; source: E. coli BL21 (DE3), purified (Ni-NTA, TEV cleavage, SEC); not shown: 8xHis-SUMO, N-terminal, cleaved
T3 sequence (looked up): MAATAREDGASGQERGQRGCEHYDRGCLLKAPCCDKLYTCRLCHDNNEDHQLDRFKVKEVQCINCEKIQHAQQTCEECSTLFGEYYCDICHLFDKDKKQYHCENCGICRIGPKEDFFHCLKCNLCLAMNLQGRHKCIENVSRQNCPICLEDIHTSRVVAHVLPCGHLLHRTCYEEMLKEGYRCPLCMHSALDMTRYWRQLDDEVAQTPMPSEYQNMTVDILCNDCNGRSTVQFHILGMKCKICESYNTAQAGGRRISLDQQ

With YKTSAAAATA [Ala6/C-degron peptide with the threonine mutation of Ala-2], the Kd in assay [1] was determined as 15 µM.

B1: Ala6/C-degron peptide (sequence: YKTSAAAAAA) (peptide)
peptide: YKTSAAAAAA
notes: decapeptide with a C-terminal six-Ala degron and a free C-terminus; also called decapeptide containing the Ala6/C-degron; six-Ala peptide; source: synthetic peptide
For B1, the equilibrium dissociation constant (Kd) worked out at 5.5 µM in assay [2], 0.5 µM in assay [1] and 0.9 µM in assay [3].

For orientation: Kd means the equilibrium constant for the complex coming apart.
